Measured values: the supplement of paper PMC10065799, “High-throughput profiling of sequence recognition by tyrosine kinases and SH2 domains using bacterial peptide display” (eLife, 2023)

Columns and labels:
c-Abl (mouse) = experiment: phosphorylation enrichment, bacterial display (enrichment ratio); higher = better substrate or ligand; peptides without Tyr show the background
EPHB2 = EPHB2 (UniProt P29323); experiment: as above
AncSZ = experiment: as above
FGFR1 = FGFR1 (UniProt P11362); experiment: as above
Chain of FGFR1 (P11362 whole entry, looked up): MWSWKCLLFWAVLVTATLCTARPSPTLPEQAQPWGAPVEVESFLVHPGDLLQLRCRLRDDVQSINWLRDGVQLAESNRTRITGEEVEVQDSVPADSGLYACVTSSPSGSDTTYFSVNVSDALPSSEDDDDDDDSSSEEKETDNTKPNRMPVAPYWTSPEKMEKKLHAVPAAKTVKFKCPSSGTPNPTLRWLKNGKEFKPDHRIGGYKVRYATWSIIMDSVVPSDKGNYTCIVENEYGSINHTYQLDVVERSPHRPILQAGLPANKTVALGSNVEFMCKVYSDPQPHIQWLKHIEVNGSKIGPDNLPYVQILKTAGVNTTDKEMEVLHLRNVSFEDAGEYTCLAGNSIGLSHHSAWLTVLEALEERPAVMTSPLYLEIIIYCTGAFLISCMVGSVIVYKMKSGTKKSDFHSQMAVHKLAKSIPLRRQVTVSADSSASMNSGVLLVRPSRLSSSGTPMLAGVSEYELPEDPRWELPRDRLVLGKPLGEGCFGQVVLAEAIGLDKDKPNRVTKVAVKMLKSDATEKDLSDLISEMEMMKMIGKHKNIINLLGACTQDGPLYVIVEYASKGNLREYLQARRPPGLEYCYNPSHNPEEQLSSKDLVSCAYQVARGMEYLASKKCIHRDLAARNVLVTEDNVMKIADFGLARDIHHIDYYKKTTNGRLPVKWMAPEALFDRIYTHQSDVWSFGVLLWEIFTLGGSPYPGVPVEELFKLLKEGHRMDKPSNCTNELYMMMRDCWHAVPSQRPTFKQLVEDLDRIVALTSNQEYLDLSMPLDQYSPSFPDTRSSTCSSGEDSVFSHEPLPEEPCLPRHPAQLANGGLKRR

c-Src = experiment: as above
EPHB1 = EPHB1 (UniProt P54762); experiment: as above
Chain of EPHB1 (P54762 whole entry, looked up): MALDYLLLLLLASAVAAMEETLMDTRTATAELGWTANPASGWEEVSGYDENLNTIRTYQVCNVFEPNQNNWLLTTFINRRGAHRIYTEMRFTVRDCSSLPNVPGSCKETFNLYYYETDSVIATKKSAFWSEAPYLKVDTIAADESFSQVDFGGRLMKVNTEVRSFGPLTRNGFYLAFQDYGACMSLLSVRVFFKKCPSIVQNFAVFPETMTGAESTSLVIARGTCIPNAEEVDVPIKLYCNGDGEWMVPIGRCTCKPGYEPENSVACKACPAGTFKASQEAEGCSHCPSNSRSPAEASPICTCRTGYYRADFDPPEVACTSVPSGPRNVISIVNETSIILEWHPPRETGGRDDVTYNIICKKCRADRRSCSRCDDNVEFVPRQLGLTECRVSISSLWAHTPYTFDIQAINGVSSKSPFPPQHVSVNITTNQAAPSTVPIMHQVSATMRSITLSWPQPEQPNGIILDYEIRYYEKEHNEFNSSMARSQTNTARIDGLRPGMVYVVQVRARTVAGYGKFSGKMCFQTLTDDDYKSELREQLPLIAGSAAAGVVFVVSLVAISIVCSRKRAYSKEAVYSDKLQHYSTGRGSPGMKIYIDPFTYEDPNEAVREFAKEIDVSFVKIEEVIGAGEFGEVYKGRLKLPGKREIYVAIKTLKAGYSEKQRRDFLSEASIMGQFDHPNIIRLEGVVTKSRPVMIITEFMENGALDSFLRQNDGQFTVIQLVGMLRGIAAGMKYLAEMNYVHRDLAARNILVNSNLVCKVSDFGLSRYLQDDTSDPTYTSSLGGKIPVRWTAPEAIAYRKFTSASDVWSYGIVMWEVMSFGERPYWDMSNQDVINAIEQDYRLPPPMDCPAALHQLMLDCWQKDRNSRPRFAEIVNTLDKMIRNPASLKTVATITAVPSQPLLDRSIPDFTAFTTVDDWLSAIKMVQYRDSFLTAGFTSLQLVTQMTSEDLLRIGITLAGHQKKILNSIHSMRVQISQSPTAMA

Fer (mouse) = experiment: as above
FGFR3 = FGFR3 (UniProt P22607); experiment: as above
Fes = Fes (UniProt P07332); experiment: as above
Chain of Fes (P07332 whole entry, looked up): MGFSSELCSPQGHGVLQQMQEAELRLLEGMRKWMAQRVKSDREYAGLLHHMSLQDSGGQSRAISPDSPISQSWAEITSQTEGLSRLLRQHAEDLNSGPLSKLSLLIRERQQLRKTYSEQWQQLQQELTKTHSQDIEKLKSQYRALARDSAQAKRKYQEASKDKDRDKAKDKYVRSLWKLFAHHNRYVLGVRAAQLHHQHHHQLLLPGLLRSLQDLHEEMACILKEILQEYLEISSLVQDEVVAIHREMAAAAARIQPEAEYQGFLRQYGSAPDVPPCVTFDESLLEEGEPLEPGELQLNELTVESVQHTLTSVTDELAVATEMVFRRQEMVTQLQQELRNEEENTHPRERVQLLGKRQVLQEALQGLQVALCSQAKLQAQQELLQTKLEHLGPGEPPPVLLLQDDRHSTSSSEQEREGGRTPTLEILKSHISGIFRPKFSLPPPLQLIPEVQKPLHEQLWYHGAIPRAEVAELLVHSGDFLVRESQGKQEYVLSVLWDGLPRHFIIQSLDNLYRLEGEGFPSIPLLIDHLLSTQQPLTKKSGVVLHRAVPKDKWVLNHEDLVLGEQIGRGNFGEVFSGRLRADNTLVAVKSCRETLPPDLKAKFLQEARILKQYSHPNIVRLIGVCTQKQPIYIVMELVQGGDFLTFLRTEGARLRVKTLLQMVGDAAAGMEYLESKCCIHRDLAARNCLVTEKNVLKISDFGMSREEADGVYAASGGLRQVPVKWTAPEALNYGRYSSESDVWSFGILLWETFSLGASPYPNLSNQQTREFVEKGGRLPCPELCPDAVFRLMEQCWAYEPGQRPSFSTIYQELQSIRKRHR

Jak2 = Jak2 (UniProt O60674); experiment: as above
Chain of Jak2 (O60674 whole entry, looked up): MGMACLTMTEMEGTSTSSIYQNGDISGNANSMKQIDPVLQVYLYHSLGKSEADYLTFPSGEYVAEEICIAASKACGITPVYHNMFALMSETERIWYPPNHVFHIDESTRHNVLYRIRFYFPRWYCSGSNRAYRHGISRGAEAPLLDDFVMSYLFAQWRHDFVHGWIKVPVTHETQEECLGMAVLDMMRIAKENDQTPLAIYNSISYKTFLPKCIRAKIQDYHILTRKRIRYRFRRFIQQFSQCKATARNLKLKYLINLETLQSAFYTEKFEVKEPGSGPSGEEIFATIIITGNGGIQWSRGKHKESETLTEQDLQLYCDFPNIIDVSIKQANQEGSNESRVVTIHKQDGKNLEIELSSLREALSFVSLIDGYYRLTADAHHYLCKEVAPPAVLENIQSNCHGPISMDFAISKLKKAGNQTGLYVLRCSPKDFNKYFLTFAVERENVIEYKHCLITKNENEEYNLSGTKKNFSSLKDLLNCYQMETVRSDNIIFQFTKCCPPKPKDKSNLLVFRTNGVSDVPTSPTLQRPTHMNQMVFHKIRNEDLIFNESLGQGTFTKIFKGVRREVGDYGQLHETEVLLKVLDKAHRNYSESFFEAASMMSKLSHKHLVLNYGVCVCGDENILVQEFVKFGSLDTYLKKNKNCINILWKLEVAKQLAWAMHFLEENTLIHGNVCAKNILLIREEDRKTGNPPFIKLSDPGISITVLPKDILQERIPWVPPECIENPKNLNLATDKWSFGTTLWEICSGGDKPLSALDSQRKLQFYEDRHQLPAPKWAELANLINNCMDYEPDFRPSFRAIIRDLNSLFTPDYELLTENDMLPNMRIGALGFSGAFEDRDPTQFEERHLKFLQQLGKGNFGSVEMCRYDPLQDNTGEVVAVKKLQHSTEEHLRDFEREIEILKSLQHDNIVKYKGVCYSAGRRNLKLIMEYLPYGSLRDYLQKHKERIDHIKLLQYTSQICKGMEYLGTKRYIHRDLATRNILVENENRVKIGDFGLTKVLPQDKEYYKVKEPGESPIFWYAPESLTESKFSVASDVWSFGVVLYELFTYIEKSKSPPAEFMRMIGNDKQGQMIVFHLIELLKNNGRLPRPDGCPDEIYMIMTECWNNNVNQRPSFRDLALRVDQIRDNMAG

Hck = Hck (UniProt P08631); experiment: as above
Chain of Hck (P08631 whole entry, looked up): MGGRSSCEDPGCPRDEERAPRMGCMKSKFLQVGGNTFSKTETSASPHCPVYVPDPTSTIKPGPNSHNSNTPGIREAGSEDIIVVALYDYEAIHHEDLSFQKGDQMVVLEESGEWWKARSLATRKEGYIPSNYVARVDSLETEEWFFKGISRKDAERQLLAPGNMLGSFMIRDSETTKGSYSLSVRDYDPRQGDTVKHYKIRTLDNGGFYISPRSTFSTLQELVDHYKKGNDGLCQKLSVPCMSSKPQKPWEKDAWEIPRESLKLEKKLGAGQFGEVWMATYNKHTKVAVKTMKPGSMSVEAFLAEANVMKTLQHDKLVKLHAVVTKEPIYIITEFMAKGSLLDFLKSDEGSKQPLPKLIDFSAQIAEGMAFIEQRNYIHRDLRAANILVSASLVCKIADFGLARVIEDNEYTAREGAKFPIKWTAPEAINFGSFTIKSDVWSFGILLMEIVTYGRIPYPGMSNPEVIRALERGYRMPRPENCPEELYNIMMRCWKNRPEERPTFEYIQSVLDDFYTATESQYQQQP

MERTK = MERTK (UniProt Q12866); experiment: as above
Fyn = Fyn (UniProt P06241); experiment: as above
Chain of Fyn (P06241 whole entry, looked up): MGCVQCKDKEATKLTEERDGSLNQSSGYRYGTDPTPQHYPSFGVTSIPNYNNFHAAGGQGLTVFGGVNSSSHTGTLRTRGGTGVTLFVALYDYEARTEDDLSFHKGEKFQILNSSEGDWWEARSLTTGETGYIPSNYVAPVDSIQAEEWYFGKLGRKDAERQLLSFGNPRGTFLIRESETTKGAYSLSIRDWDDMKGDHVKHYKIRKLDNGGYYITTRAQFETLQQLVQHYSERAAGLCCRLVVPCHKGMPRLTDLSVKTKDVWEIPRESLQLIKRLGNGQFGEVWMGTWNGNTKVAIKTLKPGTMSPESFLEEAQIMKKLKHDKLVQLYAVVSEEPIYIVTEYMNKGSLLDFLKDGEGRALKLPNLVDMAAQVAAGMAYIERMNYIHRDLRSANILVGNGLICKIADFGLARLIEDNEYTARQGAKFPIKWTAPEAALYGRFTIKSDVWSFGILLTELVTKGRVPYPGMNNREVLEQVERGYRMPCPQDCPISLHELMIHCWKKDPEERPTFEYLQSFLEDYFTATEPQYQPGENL

Grb2 SH2 = Grb2 SH2 (UniProt P62993); experiment: SH2 binding enrichment of the phosphorylated peptide, bacterial display (enrichment ratio); higher = better substrate or ligand; peptides without Tyr show the background
SHP2-C SH2 = experiment: as above
c-Src SH2 = experiment: as above
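For SH2 binding enrichment of the phosphorylated peptide, bacterial display in this document: peptide library displayed on the E. coli surface as eCPX fusions, selected cells deep-sequenced, score is each peptide's frequency after selection divided by its frequency in the input.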
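For phosphorylation enrichment, bacterial display in this document: 11-residue human phosphosite peptides and single-mutation variants displayed on the E. coli surface, counted by deep sequencing, each peptide's frequency after selection divided by its frequency in the unselected input library; frequency after pTyr selection over input frequency; kinase dosed for 20-30% of maximal phosphorylation in three min.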

SH2 binding enrichment (Grb2 SH2) | SH2 binding enrichment (SHP2-C SH2) | SH2 binding enrichment (c-Src SH2) | Sequence | phosphorylation enrichment (c-Abl (mouse)) | phosphorylation enrichment (EPHB2) | phosphorylation enrichment (AncSZ) | phosphorylation enrichment (FGFR1) | phosphorylation enrichment (c-Src) | phosphorylation enrichment (EPHB1) | phosphorylation enrichment (Fer (mouse)) | phosphorylation enrichment (FGFR3) | phosphorylation enrichment (Fes) | phosphorylation enrichment (Jak2) | phosphorylation enrichment (Hck) | phosphorylation enrichment (MERTK) | phosphorylation enrichment (Fyn)
1.47 | 1.19 | 1.03 | RQSTLYSFFPK [MSH6_Y8] | 5.61 | 18.9 | 1.34 | 6.8 | 7.83 | 18.4 | 4.37 | 5.16 | 1.77 | 0.685 | 14.6 | 22.1 | 5.84
0.837 | 0.823 | 0.588 | DLTQDSEEWKR [ORC6_Y232_Y232S] | 0.676 | 0.576 | 1.02 | 0.495 | 0.476 | 0.616 | 0.456 | 0.661 | 1.09 | 1.07 | 0.614 | 0.489 | 0.463
2.34 | 2.86 | 2.04 | YIILIYAMKKK [SLCO1B1_Y645] | 0.426 | 0.348 | 0.588 | 0.331 | 0.363 | 0.486 | 0.399 | 0.692 | 0.511 | 0.451 | 0.53 | 0.416 | 0.514
0.731 | 0.688 | 0.661 | QNTGVYFDLFG [PTPN11_Y62_D61V_YF] | 0.912 | 1.33 | 2 | 12.8 | 2.02 | 2.93 | 0.831 | 11.6 | 1.52 | 1.95 | 3.34 | 3.19 | 3.82
0.974 | 0.78 | 0.629 | CNLDTYQKRLR [PLA2G2D_Y126_R121C] | 0.592 | 0.582 | 0.65 | 0.532 | 0.473 | 0.463 | 0.395 | 0.462 | 0.624 | 0.563 | 0.475 | 0.434 | 0.463
1.21 | 0.659 | 0.68 | SPDMLYQYLKQ [RPAP3_Y567] | 0.856 | 1.78 | 1.09 | 3.36 | 1.96 | 3.35 | 11.6 | 2.04 | 0.692 | 0.727 | 8.16 | 7.39 | 1.18
0.748 | 0.762 | 0.438 | IRDLKYTIENP [SND1_Y178] | 0.785 | 0.522 | 1.21 | 0.776 | 0.47 | 0.521 | 0.541 | 0.807 | 1.38 | 1.19 | 0.507 | 0.407 | 0.456
1.03 | 0.945 | 0.385 | QKMADYSNKLF [PDPR_Y104_YF] | 1.26 | 0.647 | 1.16 | 0.741 | 0.81 | 0.662 | 0.362 | 0.586 | 1.41 | 1.41 | 0.554 | 0.788 | 0.683
0.76 | 0.495 | 0.71 | MAPQMYESHLP [NCAPD2_Y6_F8S] | 0.437 | 0.702 | 0.501 | 0.477 | 0.378 | 0.548 | 9.41 | 0.657 | 0.555 | 0.524 | 0.568 | 0.466 | 0.45
0.902 | 0.961 | 0.612 | ADLVQYFMEHH [PTPN11_Y80_E76D_YF] | 0.8 | 0.545 | 1.1 | 0.501 | 0.517 | 0.654 | 0.46 | 0.708 | 1.06 | 1 | 0.53 | 0.394 | 0.784
0.799 | 0.822 | 0.541 | FADIAYNFRRG [PAH_Y166_H170R_YF] | 0.462 | 0.411 | 0.966 | 0.43 | 0.45 | 0.637 | 0.39 | 0.539 | 0.649 | 0.602 | 0.429 | 0.396 | 0.409

The next lines start with the sequence.

Sequence | SH2 binding enrichment (Grb2 SH2) | SH2 binding enrichment (SHP2-C SH2) | SH2 binding enrichment (c-Src SH2) | phosphorylation enrichment (c-Abl (mouse)) | phosphorylation enrichment (EPHB2) | phosphorylation enrichment (AncSZ) | phosphorylation enrichment (FGFR1) | phosphorylation enrichment (c-Src) | phosphorylation enrichment (EPHB1) | phosphorylation enrichment (Fer (mouse)) | phosphorylation enrichment (FGFR3) | phosphorylation enrichment (Fes) | phosphorylation enrichment (Jak2) | phosphorylation enrichment (Hck) | phosphorylation enrichment (MERTK) | phosphorylation enrichment (Fyn)
AEPPDYSPVTQ [ADGRG2_Y285_H290Q] | 0.82 | 0.93 | 0.441 | 0.99 | 0.626 | 1.46 | 0.514 | 0.522 | 0.435 | 0.546 | 0.717 | 1.16 | 0.95 | 0.557 | 0.342 | 0.444
FEGAIYRKDIG [GART_Y417_V421I] | 0.903 | 0.71 | 0.563 | 0.515 | 0.464 | 0.868 | 0.478 | 0.477 | 0.442 | 0.446 | 0.743 | 0.769 | 0.617 | 0.506 | 0.451 | 0.524
LFNQDYPIHSV [GATM_Y227_YF] | 1.21 | 0.725 | 0.432 | 0.984 | 0.787 | 2.31 | 3.19 | 0.81 | 1.46 | 1.24 | 2 | 2.09 | 0.707 | 1.07 | 0.796 | 1.01
TEGNGYISFNE [LCP1_Y28_D24E] | 0.722 | 0.889 | 14.1 | 0.723 | 0.595 | 1.09 | 0.468 | 0.573 | 0.734 | 0.487 | 0.636 | 1.01 | 0.823 | 0.528 | 0.499 | 0.539
DTKDDYSALSV [IL17RB_Y457_N458S] | 0.956 | 0.771 | 0.609 | 0.815 | 0.663 | 1.05 | 0.715 | 0.473 | 0.627 | 0.642 | 0.828 | 1.09 | 0.928 | 0.661 | 0.441 | 0.56
ERKQTYGSCRK [LACTB_Y473] | 1.09 | 1.27 | 0.971 | 0.5 | 0.406 | 0.518 | 0.365 | 0.334 | 0.343 | 0.319 | 0.381 | 0.636 | 0.392 | 0.403 | 0.359 | 0.339
LLASGYDSPIN [ABLIM1_Y638_R637G] | 0.615 | 0.653 | 1.84 | 1.03 | 0.825 | 1.33 | 0.859 | 0.556 | 0.764 | 0.423 | 1.09 | 1.28 | 0.737 | 0.783 | 0.52 | 0.529
GHLYACDWISI [BEST1_Y227_Y227C] | 0.799 | 0.676 | 0.771 | 1.05 | 0.929 | 1.21 | 0.902 | 1.34 | 1.3 | 0.677 | 1.06 | 1.43 | 1.18 | 0.846 | 4.89 | 1.06
SSVKPYRVFCD [FGB_Y266_YF] | 1.11 | 1.08 | 0.758 | 0.7 | 0.394 | 0.701 | 0.453 | 0.481 | 0.432 | 0.34 | 0.552 | 0.74 | 0.678 | 0.432 | 0.392 | 0.419
EQWRAYLEGTC [HLA-C_Y183_L180W] | 0.749 | 0.718 | 0.466 | 0.845 | 0.588 | 1.2 | 0.65 | 0.398 | 0.648 | 0.636 | 0.951 | 1.23 | 1.17 | 0.507 | 0.437 | 0.527
KRAIGYYSATS [FAM120A_Y327] | 0.864 | 0.821 | 1.41 | 0.437 | 0.387 | 0.477 | 0.412 | 0.359 | 0.366 | 0.383 | 0.389 | 0.472 | 0.439 | 0.406 | 0.55 | 0.456
KKCTTYIDCDL [ASPA_Y64_R63T] | 0.883 | 0.826 | 0.703 | 0.601 | 0.474 | 0.975 | 0.571 | 0.415 | 0.48 | 0.713 | 0.665 | 1.14 | 0.81 | 0.491 | 0.391 | 0.42
KHCEDYVFSYN [DSC1_Y846_C848F] | 0.806 | 0.595 | 0.552 | 0.778 | 0.719 | 2.06 | 2.41 | 1.77 | 0.855 | 0.511 | 1.98 | 1.31 | 1.08 | 0.521 | 0.489 | 0.576
KLQKKYGPIYS [CYP17A1_Y60] | 1.01 | 0.819 | 0.588 | 0.451 | 0.351 | 0.433 | 0.318 | 1.17 | 0.361 | 0.39 | 0.438 | 0.468 | 0.378 | 2.26 | 0.422 | 1.59
EFISECCGEII [EZH2_Y641_Y641C] | 0.954 | 0.739 | 0.501 | 1.24 | 0.695 | 1.27 | 0.723 | 0.472 | 0.672 | 0.508 | 0.724 | 1.18 | 1.07 | 0.55 | 0.503 | 0.498
KLQKKYGPIFS [CYP17A1_Y60_YF] | 0.882 | 0.754 | 0.461 | 0.505 | 0.39 | 0.555 | 0.308 | 0.489 | 0.377 | 0.324 | 0.415 | 0.503 | 0.583 | 0.383 | 0.39 | 0.38
SSNLFYRCLTA [CNGA3_Y169_W171C_YF] | 0.808 | 0.518 | 0.399 | 1.06 | 0.632 | 1.03 | 0.491 | 0.454 | 0.638 | 0.497 | 0.742 | 1.36 | 1.12 | 0.429 | 0.42 | 0.384
RILENYGADID [DNAH5_Y596_L591R] | 0.525 | 0.474 | 0.802 | 0.951 | 0.719 | 1.17 | 0.765 | 0.56 | 0.717 | 0.403 | 0.695 | 1.06 | 1.14 | 0.494 | 0.51 | 0.726
